Results on 26 molecules are retold here after patent US20140105889A1 (published 2014).

Where a chain is given by its changes, count along the chain named. In names and notes the source's numbering stands. Where two headings read alike, the source gives them in different places.

The target of experiment [1] is T1, human FcγRIIa type R (human, UniProt P12318 36-217).
T1 construct: also called FcγRIIaR; FcγRIIa(R)
T1 chain: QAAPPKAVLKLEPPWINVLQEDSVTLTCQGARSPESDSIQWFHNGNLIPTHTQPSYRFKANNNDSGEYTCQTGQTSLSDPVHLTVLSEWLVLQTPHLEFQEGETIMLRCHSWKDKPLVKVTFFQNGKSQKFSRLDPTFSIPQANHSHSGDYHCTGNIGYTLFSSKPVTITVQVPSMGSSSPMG
As to the kind of experiment: SPR (Biacore), captured antibody, FcγR as analyte, 25 C. In general terms: SPR reads the build-up and loss of mass on a sensor chip optically.

In experiment [2] the target is T2, human FcγRIIb (human, UniProt P31994 43-217, limits assumed).
T2 construct: also called FcγIIB; hFcgRIIb
T2 sequence: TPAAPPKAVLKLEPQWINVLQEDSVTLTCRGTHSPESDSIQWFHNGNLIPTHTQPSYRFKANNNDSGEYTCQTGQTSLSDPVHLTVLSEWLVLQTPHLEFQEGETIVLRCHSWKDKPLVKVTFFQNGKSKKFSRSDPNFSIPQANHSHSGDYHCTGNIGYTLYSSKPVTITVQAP
As to the kind of experiment: ratio of this variant's SPR KD for FcγRIIaH to its KD for FcγRIIb.

Experiment [3] addresses T2, human FcγRIIb. As to the kind of experiment: ratio of this variant's SPR KD for FcγRIIaR to its KD for FcγRIIb.
In experiment [4] the target is T3, FcγRIIb (human, UniProt P31994 43-217, limits assumed).
T3 construct: Soluble analyte in Biacore; also called FcgRIIb; FcγIIB
T3 sequence: T2 sequence
As to the kind of experiment: SPR (Biacore); ratio against the parent IL6R-B3/IL6R-L.

The target of experiment [5] is T3, FcγRIIb. As to the kind of experiment: SPR (Biacore), antibody captured on chip, FcγR as analyte, method of Example 14.
Experiment [6] concerns the target T4, FcγRIIIa type V (human, UniProt P08637 17-208, limits assumed).
T4 construct: Soluble analyte in Biacore; also called FcγRIIIaV; FcγRIIIa(V)
Described as above.

Experiment [7] addresses T5, FcγRIIa type H (human, UniProt P12318 36-217).
T5 construct: Soluble analyte in Biacore; also called FcγRIIaH; FcγRIIa(H)
T5 sequence: T1 chain with R133H
Described as above.

The target of experiment [8] is T2, human FcγRIIb. As to the kind of experiment: SPR KD for FcγRIIb of parent IL6R-B3/IL6R-L divided by that of this variant.
Experiment [9] deals with T6, human FcRn (soluble human FcRn complexed with beta2-microglobulin) (human, UniProt P61769 21-119).
T6 construct: Soluble human FcRn complexed with beta2-microglobulin; also called hFcRn
As to the kind of experiment: Biacore SPR, antibody captured on Protein L, human FcRn analyte, pH 7.0.

The target in experiment [10] is T7, human FcRn (soluble human FcRn complexed with β2-microglobulin) (human, UniProt P61769 21-119).
T7 construct: also called hFcRn
As to the kind of experiment: SPR (Biacore), Protein L capture, hFcRn analyte, pH 7.0.

For experiment [11], the target named is T6, human FcRn (soluble human FcRn …). As to the kind of experiment: Biacore SPR, antibody captured on Protein L, human FcRn analyte, pH 7.0. The source holds these as a separate data set.
In experiment [12] the target is T8, human FcRn (soluble human FcRn complexed with beta2-microglobulin) (human, UniProt P61769 21-119).
T8 construct: also called hFcRn
As to the kind of experiment: SPR (Biacore), pH 7.0, 25 C, antibody captured by Protein L, human FcRn as analyte.

In experiment [13] the target is T6, human FcRn (soluble human FcRn …). As to the kind of experiment: Biacore SPR, antibody captured on Protein L, human FcRn analyte, pH 7.0. This is another data set of the same source.
Experiment [14] addresses T7, human FcRn (soluble human FcRn …). As to the kind of experiment: SPR (Biacore), Protein L capture, hFcRn analyte, pH 7.0. This is another data set of the same source.

T7 sequence (chain, as listed by the source limits assumed, chain 1 of 2): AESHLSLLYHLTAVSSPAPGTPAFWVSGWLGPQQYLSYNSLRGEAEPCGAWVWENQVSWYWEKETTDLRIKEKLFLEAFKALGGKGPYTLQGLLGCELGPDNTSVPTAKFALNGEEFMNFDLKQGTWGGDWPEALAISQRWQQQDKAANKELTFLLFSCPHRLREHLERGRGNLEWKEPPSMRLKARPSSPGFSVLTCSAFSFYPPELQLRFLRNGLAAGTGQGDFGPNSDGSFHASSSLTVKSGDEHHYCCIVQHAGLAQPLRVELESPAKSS
T7 sequence (P61769 21-119 limits assumed, chain 2 of 2): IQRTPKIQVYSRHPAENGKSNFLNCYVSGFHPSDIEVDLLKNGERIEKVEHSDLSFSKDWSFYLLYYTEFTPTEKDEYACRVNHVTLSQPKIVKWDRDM
T4 sequence (P08637 other isoform, or with tags, fused parts or gaps limits assumed): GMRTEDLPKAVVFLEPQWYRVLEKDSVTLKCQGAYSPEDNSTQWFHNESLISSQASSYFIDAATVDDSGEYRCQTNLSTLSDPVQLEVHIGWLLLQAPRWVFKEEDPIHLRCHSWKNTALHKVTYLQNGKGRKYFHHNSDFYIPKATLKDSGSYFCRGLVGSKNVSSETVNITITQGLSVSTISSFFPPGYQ

B1: IL6R-BF648/IL6R-L (antibody, human IgG1)
heavy: not shown
light: DIQMTQSPSSLSASVGDRVTITCRASQDISSYLNWYQQKPGKAPKLLIYYTSRLHSGVPSRFSGSGSGTDFTFTISSLQPEDIATYYCQQGNTLPYTFGQGTKVEIK
notes: IL6R-B3 with P238D; copies: 2 + 2
A word on the Kd: it is the free concentration of one partner at which half of the binding sites on the other are occupied at equilibrium, for simple one-to-one binding. High values mean lower affinity, low ones higher affinity. The molecule B1 showed a Kd in experiment [1] of 1500 nM. Further, the “KD (IIaH)/KD (IIb)” value in [2] came out at 33.9. Also, in [3], the “KD (IIaR)/KD (IIb)” value worked out at 13.

B2: IL6R-BP209/IL6R-L (antibody, human IgG1)
heavy: QVQLQESGPGLVKPSETLSLTCAVSGHSISHDHAWSWVRQPPGEGLEWIGFISYSGITNYNPSLQGRVTISRDNSKNTLYLQMNSLRAEDTAVYYCARSLARTTAMDYWGEGTLVTVSSASTKGPSVFPLAPSSKSTSGGTAALGCLVKDYFPEPVTVSWNSGALTSGVHTFPAVLQSSGLYSLSSVVTVPSSSLGTQTYICNVNHKPSNTKVDKKVEPKSCDKTHTCPPCPAPELLGDDSVFLFPPKPKDTLMISRTPEVTCVVVDVSDEDGEVKFNWYVDGVEVHNAKTKPREEQYNSTYRVVSVLTVLHQDWLNGKEYKCKVSNAALPRPIEKTISKAKGQPREPQVYTLPPSRDELTKNQVSLTCLVKGFYPSDIAVEWESNGQPENNYKTTPPVLDSDGSFFLYSKLTVDKSRWQQGNVFSCSVMHEALHNHYTQESLSLSP
light: B1 light
notes: Anti-human IL-6 receptor IgG1 Fc variant
As to B2, in [4], the “KD(IIb) of the parent polypeptide/KD(IIb) of the altered polypeptide” value (from here on “KD(IIb)”) worked out at 80.4 fold. Moreover, the Kd was found to be 5100 nM in experiment [5] and 41 µM in experiment [6].

B3: IL6R-BP213/IL6R-L (antibody, human IgG1)
heavy: B2 heavy with E235D, D239G, A328K
light: B1 light
notes: as for B2
Turning to B3, the “KD(IIb)” value in [4] stood at 17.5 fold. Further, the Kd in experiment [5] was 160 nM; in [6], 63 µM.

B4: IL6R-BP205/IL6R-L (antibody, human IgG1)
heavy: B2 heavy with E235D, D239G, D270H, Y298D, A328K
light: B1 light
notes: as for B2
For the molecule B4, the Kd in experiment [7] came to 26 µM; in experiment [6] it was 65 µM.

B5: IL6R-BP212/IL6R-L (antibody, human IgG1)
heavy: B2 heavy with E235D, D239G, Y298D, A328K
light: B1 light
notes: as for B2
Consider B5, for which the “KD(IIb)” value in experiment [4] worked out at 16.7 fold. In [7], this molecule gave a Kd of 2.2 µM.

B6: IL6R-BP208/IL6R-L (antibody, human IgG1)
heavy: B2 heavy with E235D, A328K
light: B1 light
notes: as for B2
With B6, the Kd in experiment [7] turned out to be 8.3 µM; in experiment [6] it was 55 µM.

B7: IL6R-BP129/IL6R-L (antibody, human IgG1)
heavy: B2 heavy with E235D, D239G, D270H, G273P, Y298D, A328K, R332K
light: B1 light
notes: copies: 2 + 2
Take B7: the Kd in [1] amounted to 1500 nM. In experiment [2], the “KD (IIaH)/KD (IIb)” value stood at 77.5. The “KD (IIaR)/KD (IIb)” value in experiment [3] was determined as 29.3. In experiment [8], the “KD(IIb)” value amounted to 8.

B8: IL6R-BP082/IL6R-L (antibody, human IgG1)
heavy: B2 heavy with E235D, D239G, D270H, G273P, A328K, R332K
light: B1 light
notes: copies: 2 + 2
In turn, B8 returned a Kd in experiment [1] of 1200 nM. The “KD (IIaH)/KD (IIb)” value in [2] was determined as 69. The “KD (IIaR)/KD (IIb)” value in [3] stood at 22.5. The “KD(IIb)” value in experiment [8] is 5.6.

B9: IgG1-F327 (antibody, name in EU numbering)
heavy: QVQLQESGPGLVKPSETLSLTCAVSGHSISHDHAWSWVRQPPGEGLEWIGFISYSGITNYNPSLQGRVTISRDNSKNTLYLQMNSLRAEDTAVYYCARSLARTTAMDYWGEGTLVTVSSASTKGPSVFPLAPSSKSTSGGTAALGCLVKDYFPEPVTVSWNSGALTSGVHTFPAVLQSSGLYSLSSVVTVPSSSLGTQTYICNVNHKPSNTKVDKKVEPKSCDKTHTCPPCPAPELLGGPKVFLFPPKPKDTLYISREPEVTCVVVDVSHEFPEVKFNWYVDGVEVHNAKTKPREEQYNSTYRVVSVLQVLHADWLNGKEYKCKVSNKALPAPIEKTISKAKGQPREPQVYTLPPSRDELTKNQVSLTCLVKGFYPSDIAVEWESNGQPENNYKTTPPVLDSDGSFFLYSKLTVDKSRWQQGNVFSCSVMHEALHYHYTQKSLSLSP
light: not shown
notes: Fc variant of VH3-IgG1; copies: 2 + 2
In the case of B9, the Kd in experiment [9] came to 65 nM.

B10: IgG1-F529 (antibody, name in EU numbering)
heavy: B9 heavy with K241S, Y254M, E258T, P259T, F272D, A313Q, M430F
light: not shown
notes: copies: 2 + 2
Molecule B10 registered a Kd in experiment [10] of 25 nM.

B11: IgG1-F419 (antibody, name in EU numbering)
heavy: B9 heavy with K241S, E258T, F272D, Q309A, A313H, K362H
light: not shown
notes: as for B9
In [11], B11 had a Kd of 160 nM. This counts as sub-micromolar.

B12: IgG1-F434 (antibody, name in EU numbering)
heavy: B9 heavy with K241S, Y254M, E258T, P259V, F272D, N327G, M430Y
light: not shown
notes: as for B9
For the molecule B12, the Kd in experiment [11] amounted to 20 nM.

B13: IgG1-F1019 (antibody, name in EU numbering)
heavy: B9 heavy with P240D, K241S, T252V, E258T, F272D, Q309T, A313Q, N327G
light: not shown
Regarding B13, the Kd in experiment [12] was 340 nM.

B14: IgG1-F492 (antibody, name in EU numbering)
heavy: B9 heavy with K241S, Y254M, E258T, P259V, F272D, V307A, Q309A, A313Q, N327G, M430L
light: not shown
notes: copies: 2 + 2
On to B14, for which binding in experiment [10] was characterised by a dissociation constant (Kd) of 98 nM.

B15: IgG1-F329 (antibody, name in EU numbering)
heavy: B9 heavy with E258T, N288E, Q309T, V310P, A313Q
light: not shown
notes: as for B9
The molecule B15 gave a Kd in experiment [9] of 12 nM.

B16: IgG1-F393 (antibody, name in EU numbering)
heavy: B9 heavy with E258T, F272D, N288E, Q309T, V310P, A313Q
light: not shown
notes: as for B9
The molecule B16 displayed a Kd in experiment [13] of 12 nM.

B17: IgG1-F450 (antibody, name in EU numbering)
heavy: B9 heavy with E258T, F272D, Q309P, L311E, A313Q, N327G, M430Y
light: not shown
notes: copies: 2 + 2
Regarding B17, in [14], the Kd came to 520 nM.

B18: IgG1-F421 (antibody, name in EU numbering)
heavy: B9 heavy with K241S, E258T, F272D, Q309A, A313H, M430A
light: not shown
notes: as for B9
In turn, B18 yielded a Kd in [11] of 130 nM.

B19: IgG1-F1017 (antibody)
heavy: B9 heavy with L237R, T252V, E258T, F272D, N288E, V310P, Y438V
light: not shown
Turning to B19, the affinity in [12], expressed as Kd, was 4.2 nM.

B20: IgG1-F445 (antibody, name in EU numbering)
heavy: B9 heavy with K241S, Y254M, E258T, P259A, F272D, A313H, M430L
light: not shown
notes: copies: 2 + 2
Consider B20, for which, in experiment [14], the Kd worked out at 62 nM.

B21: IgG1-F382 (antibody, name in EU numbering)
heavy: B9 heavy with K241S, Y254M, E258T, P259V, F272D, V307A, Q309A, A313Q, M430L
light: not shown
notes: as for B9
For the molecule B21, binding in [13] was characterised by a dissociation constant (Kd) of 87 nM.

B22: IgG1-F1014 (antibody, name in EU numbering)
heavy: B9 heavy with L237R, T252V, E258T, F272D, V310P
light: not shown
B22 yielded a Kd in experiment [12] of 32 nM. This counts as double-digit nanomolar.

B23: IgG1-F357 (antibody, name in EU numbering)
heavy: B9 heavy with Q309T, V310P, A313Q, N327G, M430I
light: not shown
notes: as for B9
For B23, the Kd in [9] was 16 nM.

B24: IgG1-F462 (antibody, name in EU numbering)
heavy: B9 heavy with K241S, Y254M, E258T, P259A, F272D, Q309T, V310P, A313Q, N327G, M430L
light: not shown
notes: copies: 2 + 2
For B24, in experiment [14], binding was put at a Kd of 85 nM.

B25: IgG1-F527 (antibody, name in EU numbering)
heavy: B9 heavy with K241S, Y254M, E258T, P259V, F272D, V310P, A313Q, N327G, M430Y
light: not shown
notes: copies: 2 + 2
In turn, B25 came in with a Kd in [10] of 9.4 nM.

B26: IgG1-F398 (antibody, name in EU numbering)
heavy: B9 heavy with E258T, N288E, V310P, M430I
light: not shown
notes: as for B9
As for B26, binding in experiment [13] was characterised by a dissociation constant (Kd) of 4.4 nM.
